Laboratory results reported in patent US20260286413A1, “HYALURONAN SYNTHESIS, SECRETION AND LENGTH CONTROL” (UNIVERSITY OF VIRGINIA, priority 2023, published 2026).

Legend:
[1] = test system: X1HAS1; assay: Electrophoretic HA size determination (agarose gel, Stains-all) of in vitro synthesized HA; format: biochemical, Xenopus laevis
Description: To assess the size of HA synthesized by X1HAS1, similar reaction conditions were applied to the ones described above. […] […] Controls were carried out by digesting the synthesized polymers with hyaluronidase. Synthesis reactions were mixed with SDS-PAGE loading dye and applied to a 1% agarose gel (Ultra-pure agarose, Invitrogen) casted in an Owl B2 system (ThermoFisher). […] After the run, the gel was equilibrated in 50% ethanol for 1.5 h and subjected to staining in 0.05% Stains-all (Sigma) in 50% ethanol overnight under light-protection. Post-staining background was reduced by soaking the gel in 20% ethanol for 3-7 days in the dark. The migration of the synthesized HA species was compared to HA standards from Streptococcus equi (Sigma), as well as enzymatically generated ladders: HA LoLadder and HA HiLadder (Hyalose).

[2] = test system: X1HAS1; assay: Substrate turnover rate quantification (UDP release, enzyme-coupled assay); format: biochemical, Xenopus laevis; details: UDP release; for substrate turnover rate / catalytic rate relative to WT: normalized to WT
Description: UDP release during HA synthesis was quantified using an enzyme-coupled assay as previously described (10, 13). Depletion of NADH was monitored at 340 nm every 60 s for 3 hours at 37° C. in a SpectraMax instrument. The raw data was processed in MS Excel and a linear phase of each reaction was determined. The rate of NADH depletion was converted to pmoles of UDP released using a UDP standardized plot (FIG. S1C) for Michaelis-Menten constant determination using GraphPad Prism. For substrate turnover rate quantification of X1HAS1 mutants, pmoles of released UDP were converted to the number of corresponding substrate turnovers per molecule of X1HAS1, per minute. Data is presented relative to wild type activity. All experiments were performed in four to eight replicates and error bars represent standard deviation from the means.
HAS transfers the UDP-activated glycosyl unit (the donor sugar) to the non-reducing end of the nascent HA polymer (the acceptor sugar). This reaction generates UDP and elongated HA as reaction products (FIG. 1A). Catalytic activity can be assessed by monitoring the release of UDP in an enzyme-coupled reaction, as previously described (10, 13), or quantifying HA, either radiometrically or by dye staining following electrophoresis.

B1: W491A: X1HAS1 mutant, Trp491 of WGTSGRK/R motif replaced with Ala (protein, UniProt P13563 1-588, looked up, variant W491A)
Hyaluronan synthase 1: MKEKAAETMEIPEGIPKDLEPKHPTLWRIIYYSFGVVLLATITAAYVAEFQVLKHEAILFSLGLYGLAMLLHLMMQSLFAFLEIRRVNKSELPCSFKKTVALTIAGYQENPEYLIKCLESCKYVKYPKDKLKIILVIDGNTEDDAYMMEMFKDVFHGEDVGTYVWKGNYHTVKKPEETNKGSCPEVSKPLNEDEGINMVEELVRNKRCVCIMQQWGGKREVMYTAFQAIGTSVDYVQVCDSDTKLDELATVEMVKVLESNDMYGAVGGDVRILNPYDSFISFMSSLRYWMAFNVERACQSYFDCVSCISGPLGMYRNNILQVFLEAWYRQKFLGTYCTLGDDRHLTNRVLSMGYRTKYTHKSRAFSETPSLYLRWLNQQTRWTKSYFREWLYNAQWWHKHHIWMTYESVVSFIFPFFITATVIRLIYAGTIWNVVWLLLCIQIMSLFKSIYACWLRGNFIMLLMSLYSMLYMTGLLPSKYFALLTLNKTGAGTSGRKKIVGNYMPILPLSIWAAVLCGGVGYSIYMDCQNDWSTPEKQKEMYHLLYGCVGYVMYWVIMAVMYWVWVKRCCRKRSQTVTLVHDIPDMCV
- HA product versus WT, short reaction [1]: abolishes HA biosynthesis
- substrate turnover / catalytic activity compared to WT [2]: abolished

B2: T493S: X1HAS1 mutant, Thr493 replaced with Ser (protein, UniProt P13563 1-588, looked up, variant T493S)
Hyaluronan synthase 1: MKEKAAETMEIPEGIPKDLEPKHPTLWRIIYYSFGVVLLATITAAYVAEFQVLKHEAILFSLGLYGLAMLLHLMMQSLFAFLEIRRVNKSELPCSFKKTVALTIAGYQENPEYLIKCLESCKYVKYPKDKLKIILVIDGNTEDDAYMMEMFKDVFHGEDVGTYVWKGNYHTVKKPEETNKGSCPEVSKPLNEDEGINMVEELVRNKRCVCIMQQWGGKREVMYTAFQAIGTSVDYVQVCDSDTKLDELATVEMVKVLESNDMYGAVGGDVRILNPYDSFISFMSSLRYWMAFNVERACQSYFDCVSCISGPLGMYRNNILQVFLEAWYRQKFLGTYCTLGDDRHLTNRVLSMGYRTKYTHKSRAFSETPSLYLRWLNQQTRWTKSYFREWLYNAQWWHKHHIWMTYESVVSFIFPFFITATVIRLIYAGTIWNVVWLLLCIQIMSLFKSIYACWLRGNFIMLLMSLYSMLYMTGLLPSKYFALLTLNKTGWGSSGRKKIVGNYMPILPLSIWAAVLCGGVGYSIYMDCQNDWSTPEKQKEMYHLLYGCVGYVMYWVIMAVMYWVWVKRCCRKRSQTVTLVHDIPDMCV
- HA product versus WT, short reaction [1]: exceeding the size of the WT product
- HA size difference versus WT product ([1]; from differences in electrophoretic mobility): up to 0.5 MDa
- substrate turnover rate / catalytic rate relative to WT [2]: 20-25%

B3: R381K: X1HAS1 mutant, Arg381 replaced with Lys (protein, UniProt P13563 1-588, looked up, variant R381K)
Hyaluronan synthase 1: MKEKAAETMEIPEGIPKDLEPKHPTLWRIIYYSFGVVLLATITAAYVAEFQVLKHEAILFSLGLYGLAMLLHLMMQSLFAFLEIRRVNKSELPCSFKKTVALTIAGYQENPEYLIKCLESCKYVKYPKDKLKIILVIDGNTEDDAYMMEMFKDVFHGEDVGTYVWKGNYHTVKKPEETNKGSCPEVSKPLNEDEGINMVEELVRNKRCVCIMQQWGGKREVMYTAFQAIGTSVDYVQVCDSDTKLDELATVEMVKVLESNDMYGAVGGDVRILNPYDSFISFMSSLRYWMAFNVERACQSYFDCVSCISGPLGMYRNNILQVFLEAWYRQKFLGTYCTLGDDRHLTNRVLSMGYRTKYTHKSRAFSETPSLYLRWLNQQTKWTKSYFREWLYNAQWWHKHHIWMTYESVVSFIFPFFITATVIRLIYAGTIWNVVWLLLCIQIMSLFKSIYACWLRGNFIMLLMSLYSMLYMTGLLPSKYFALLTLNKTGWGTSGRKKIVGNYMPILPLSIWAAVLCGGVGYSIYMDCQNDWSTPEKQKEMYHLLYGCVGYVMYWVIMAVMYWVWVKRCCRKRSQTVTLVHDIPDMCV
- substrate turnover / catalytic activity compared to WT [2]: cannot be replaced

B4: K218A: X1HAS1 mutant, Lys218 replaced with Ala (protein, UniProt P13563 1-588, looked up, variant K218A)
Hyaluronan synthase 1: MKEKAAETMEIPEGIPKDLEPKHPTLWRIIYYSFGVVLLATITAAYVAEFQVLKHEAILFSLGLYGLAMLLHLMMQSLFAFLEIRRVNKSELPCSFKKTVALTIAGYQENPEYLIKCLESCKYVKYPKDKLKIILVIDGNTEDDAYMMEMFKDVFHGEDVGTYVWKGNYHTVKKPEETNKGSCPEVSKPLNEDEGINMVEELVRNKRCVCIMQQWGGAREVMYTAFQAIGTSVDYVQVCDSDTKLDELATVEMVKVLESNDMYGAVGGDVRILNPYDSFISFMSSLRYWMAFNVERACQSYFDCVSCISGPLGMYRNNILQVFLEAWYRQKFLGTYCTLGDDRHLTNRVLSMGYRTKYTHKSRAFSETPSLYLRWLNQQTRWTKSYFREWLYNAQWWHKHHIWMTYESVVSFIFPFFITATVIRLIYAGTIWNVVWLLLCIQIMSLFKSIYACWLRGNFIMLLMSLYSMLYMTGLLPSKYFALLTLNKTGWGTSGRKKIVGNYMPILPLSIWAAVLCGGVGYSIYMDCQNDWSTPEKQKEMYHLLYGCVGYVMYWVIMAVMYWVWVKRCCRKRSQTVTLVHDIPDMCV
- HA product versus WT ([1]; short and long reactions (1 h or 8 h), not distinguished): abolishes
- substrate turnover / catalytic activity compared to WT [2]: abolishes

B5: W491F: X1HAS1 mutant, Trp491 replaced with Phe (protein, UniProt P13563 1-588, looked up, variant W491F)
Hyaluronan synthase 1: MKEKAAETMEIPEGIPKDLEPKHPTLWRIIYYSFGVVLLATITAAYVAEFQVLKHEAILFSLGLYGLAMLLHLMMQSLFAFLEIRRVNKSELPCSFKKTVALTIAGYQENPEYLIKCLESCKYVKYPKDKLKIILVIDGNTEDDAYMMEMFKDVFHGEDVGTYVWKGNYHTVKKPEETNKGSCPEVSKPLNEDEGINMVEELVRNKRCVCIMQQWGGKREVMYTAFQAIGTSVDYVQVCDSDTKLDELATVEMVKVLESNDMYGAVGGDVRILNPYDSFISFMSSLRYWMAFNVERACQSYFDCVSCISGPLGMYRNNILQVFLEAWYRQKFLGTYCTLGDDRHLTNRVLSMGYRTKYTHKSRAFSETPSLYLRWLNQQTRWTKSYFREWLYNAQWWHKHHIWMTYESVVSFIFPFFITATVIRLIYAGTIWNVVWLLLCIQIMSLFKSIYACWLRGNFIMLLMSLYSMLYMTGLLPSKYFALLTLNKTGFGTSGRKKIVGNYMPILPLSIWAAVLCGGVGYSIYMDCQNDWSTPEKQKEMYHLLYGCVGYVMYWVIMAVMYWVWVKRCCRKRSQTVTLVHDIPDMCV
- HA product versus WT, short reaction [1]: lower molecular weight product
- substrate turnover / catalytic activity compared to WT [2]: reduced

B6: T493A: X1HAS1 mutant, Thr493 replaced with Ala (protein, UniProt P13563 1-588, looked up, variant T493A)
Hyaluronan synthase 1: MKEKAAETMEIPEGIPKDLEPKHPTLWRIIYYSFGVVLLATITAAYVAEFQVLKHEAILFSLGLYGLAMLLHLMMQSLFAFLEIRRVNKSELPCSFKKTVALTIAGYQENPEYLIKCLESCKYVKYPKDKLKIILVIDGNTEDDAYMMEMFKDVFHGEDVGTYVWKGNYHTVKKPEETNKGSCPEVSKPLNEDEGINMVEELVRNKRCVCIMQQWGGKREVMYTAFQAIGTSVDYVQVCDSDTKLDELATVEMVKVLESNDMYGAVGGDVRILNPYDSFISFMSSLRYWMAFNVERACQSYFDCVSCISGPLGMYRNNILQVFLEAWYRQKFLGTYCTLGDDRHLTNRVLSMGYRTKYTHKSRAFSETPSLYLRWLNQQTRWTKSYFREWLYNAQWWHKHHIWMTYESVVSFIFPFFITATVIRLIYAGTIWNVVWLLLCIQIMSLFKSIYACWLRGNFIMLLMSLYSMLYMTGLLPSKYFALLTLNKTGWGASGRKKIVGNYMPILPLSIWAAVLCGGVGYSIYMDCQNDWSTPEKQKEMYHLLYGCVGYVMYWVIMAVMYWVWVKRCCRKRSQTVTLVHDIPDMCV
- HA product versus WT, short reaction [1]: exceeding the size of the WT product
- substrate turnover rate / catalytic rate relative to WT [2]: 20-25%
